Experimental data: the DeepSol protein solubility set

Test: soluble on expression in E. coli; label from the status in PepcDB or PDB records

Sequence | soluble on expression in E. coli
MSTINQKLSDNFREAWQKQNLEVNLEEVIEKWELTKYVKDNFICPEVNISTLPSYSFVLKFMFKLKKPYISLDENDFYIIDNPLRKDKVLNLPFVAPSSWKGSLRNSLWQLNYDYENDKIRRIFGNERSPNSEDIVLRMGRLYFFPTFFSKKSLEIINPHNRESRVGTVPILMESVPQDTTGYFTLIYVPFDLIGCEENEIKKQVACDIQLISKGLKSMFTYYGFGAKTSSGYGTSYEDITDGTITLRVKGIEVSLKDIDEVKPPAEGYSKYLNEDGSVKEEFKGSGKYGLLSDKEYYKIKNQLEGSRNEYRDFRQWYGLNGEKWQKHLNSFKYPKPEWPTWNFGNFFQLIEVSKNIATSLELSGAHNECMAGDPLEHHHHHH | not soluble
MGSDKIHHHHHHMIVLIGGEKGGSGKSCLAQNIAVFLTTECNASVIMVDCDPQRTTSDWIQARNNNPKLASINCVQLYGKIRNDLLSLEQHYDVVIVDCGGQDNLALRATMSVAAYILMPLRPKRRDLKTVCHMDDIVATCKMINPKLRASFVITQCPNLPNQANRILEAKEVCKTYDINVLDAITYCRNVYDDSEESGLSVIEIDPNGKAADEIRTIACELFQVDCAANLEDRLHPALLAQSAGKGQMHNGLTNSGLTNNGLLNNGLLHQTQPTHLNTKQRGQNGTQRPQEKRYAI | not soluble
MGSDKIHHHHHHAAPSPDAQRVAAYAASHFQQAQIDTLKTLVGYDTRARDGLTPDTDPVFADFKRALGVKARMLGLDVEDNGYVMLISLSPEGAGTDVKKVGVITHGDVQPADPSLWPQSPYELTETADGRLVGRGAEDDKGPIATALYAMKAIKDSGIVLKRRIELLVYMAEESDWEPLKDFLKTYEPADINITLDAEYPVVTGEKGWSQIKLSLPRVMVKVGADTPVLTYFSGGSFASQIPQQASAVIQNTNPELVAALKARAKTLPIKTDFIDEPQGLTIHATGKAAHSSTPEDGINAVAYLAELLSPTADGGIPEWPMTTAAVTVDFLHSLVGTGLYGERFGKLGYSDEFMGPMTLAPTLITEGKEGTDVTLNLRRPVGRTPEALDKLAIAAIHGWQDARGTQVADIETYWGTPMLIDDAPHLETLLGVFGHYTNTAGPKPIAIGGSTNAKLFPNALSFGPAMPGMEYTGHSEYEFITRDQLKLNLEMYTAALVELAMRE | not soluble
MAEETQTVETVEEQVVPEAKQPQDEKKYTDADVDAIIDKKFAKWKSEQEAEKSEAKKMAKMNEKEKADYEKQKLLDELQELKNDKTRNELTAVARQMFAESEINVNDDVLGLVVTLDAEQTKANVTTLANAFAKVIADDRKALVRQTTPSTGGGLSKQTNYGANLASKAAQQSTKLF | not soluble
HRRNATSLQLSRCANIADRTGLDALGGRRHSRRCPPPQRGLAAIKPLRQHRRRPVRSHIGGNQFADLPHQVDAFVHGKTDAVMLQPRQHAAKRGLRSIVRHFFIRQYRSLIIKRRAHTPGIRQLYRIAHCLRRPVLCGEPFYGFLFESNPLRLIEAV | not soluble
GSHGRSRFVKKDGHCNVQFINVGEKRNETLVFSHNAVIAMRDGKLCLMWRVGNLQKSHLVEAHVRAQLLKSRITSEGEYIPLDQIDINVGFDSGIDRIFLVSPITIVHEIDEDSPLYDLSKQDIDNADFEIVVILEGMVEATAMTKQCRSSYLANEILWGHRYEPVLFEEKHYYKVDYSRFHKTYEVPNTPLCSARDLAEKKYILSNA | soluble
MNNFKLHTPTRILFGKGAIVDLRDQIPQDARVLITYGGGSVKKTGVLAQVQEALKGLDVREFGGIEPNPSYETLMKAVQLVRDENITFLLAVGGGSVLDGTKFIAAAAQYTDGVDPWHILETGGTEIRSAIPMGSVLTLPATGSESNAGAVISRKTTGDKQAFHSSFVQPVFAVLDPVYTYTLPPRQVANGVVDAFVHTVEQYVTYPVNGKIQDRFAEGILLTLIEEGPKALQEPENYDVRANVMWAATQALNGLIGAGVPQDWATHMLGHELTAMHGLDHAQTLAIVLPALWNEKRDVKRAKLLQYAERVWNITDGSDDERIDAAIAATRRFFEQMGVPTHLSDYGLDGSTIPALLAKLEAHGCINLGENQDITLDVSRRIYEAAR | not soluble
MGSDKIHHHHHHMNREFYGKIIISGEIEAVTGLHIGSQREVSEIGGIDNPVIKDPHTGLPYIPGSSLKGRLRSLFEIYVNTRLDELKSKYSSLSNYSKGSCRDVGKENCGKFFNKKLNNVWIHVCSTYEMARNCPVCRLYGSSGKESNFPSRLIVRDAFLTEEWKKKWENGEAITEAKIEVGIDRVTSQANPRTTERVVAGTRFDFEIIYTIEDLKEWKDDLRNLLTSMLLLEDSYLGGSGSRGYGKVRFHVKGLELRPLEYYRTGDEGKIVKKTEYERVEDLLKNFETITSEFDRRVGGIEG | not soluble
MSLNYRFRFAPYQRPFKTPLQTHHGLWTVREGIMLSLRDERGRITQGEIVPLPWFGTETLEEAIAFCAAFGGNITSEQIAAIPDALPACQFGFETAQLNLASTENLVSLPPTKFCQLIRRSPTMFQDLQTLLQQGFRTFKLKIALDIPATEIALCQQILETLPADGRLRLDANGGLTLEQVKQWLDWGESQAKLEFIEQPLAPAHFSNLLQLNAEFQTQIALDESVSQVASLEHCYAQGWRGVFVIKLAIAGFPSRLQDVCQTKKLDFVLSTVFETAVGQRALLNFSQDFVQSRRALGMGGTQWIEGHHHHHH | soluble
MGSSHHHHHHSSGLVPRGSHMSSEFIEAGAADRVRILSEALPYLQQFAGRTVVVKYGGAAMKQEELKEAVMRDIVFLACVGMRPVVVHGGGPEINAWLGRVGIEPQFHNGLRVTDADTMEVVEMVLVGRVNKDIVSRINTTGGRAVGFCGTDGRLVLARPHDQEGIGFVGEVNSVNSEVIEPLLERGYIPVISSVAADENGQSFNINADTVAGEIAAALNAEKLILLTDTRGILEDPKRPESLIPRLNIPQSRELIAQGIVGGGMIPKVDCCIRSLAQGVRAAHIIDGRIPHALLLEIFTDAGIGTMIVGSGYHEAHQPWQ | soluble
MKQTPPLISFITICYNGLDDTCMLIESLRDTISSVSYEIIVVDNASRQDEASLIQERYPFVRTLRSEKNLGFSGGNNLGIQIAQGKYLFLINNDTYLTEDGLPALIERLESDPRIGAVSPKIRFAFPPQSIQFAGYTKLSRYTMRNKALGMGCPDDGTFDTPRPSAYLHGAALMLKREVIWKAGLMPEIYFLYYEELDWCTSMTRAGYQLWYEPRCTIFHKESQSTGRQSPLRTFYMMRNRMLYAWRNLPGMERCLAIAYQMLIVAPKDSLCFVLKGEPKLAKAVWHGVKGFWKLC | not soluble
MAHHHHHHMQANLWLKGQTSTPLQRICDPVPNLLISQSSQGGQRALWLLHRPESVLGLVVSPQWQGESGDHELCDASVVSKRKIVRVMKHLHSLPFRVAGSSPLRPPMVVHKNHLVGWRIDGKAAPLYAHTLDQLAKLKPTQFKTIEPKNAFICRTYYEWDNWKEVSMEPGWTWHHVDEEIANNILDGTLTFDGLRATATDTP | soluble
MTDQLQHIRKPPRTGKAARSGTQDEIVYAHIFDAILEQRLAPGTKLSEEALGEIFGVSRTIIRRALSRLAHEQVVLLRPNRGAVVASPSIDEARQILFARRTVERAITELATDNATAERLAEL | not soluble
MGLFDGLLGNATQNNNETAEKELRDVLIPNEKVDMAFTLVRDLIVFTDKRLILVDKQGITGKKVDYKSIPYKSISRFSVETSGHFDLDAELKIWISSTELPSVSLQFRKDKDIVAIQQALAAAVLS | not soluble
MGSDKIHHHHHHMDKAKLIDLIKTNPNALVYIPNPSDELKLLAVQKNGLALKHIEHPTPEMQELALANNSRAIQFIDNPTEEMMNKAIQDSWVNLEYLQHPSETIIKLAITQAGWAIKYVKHPSEELQLLAVRRHYDSIKFIKDPCPKAQEEAVRINYDALRYIDSPTPQAELLAIRNHESAIAFVKDLSKEKILQFLGVNFLVIKYVRNDITKAELEQVLKETLGQEDVDEKYVRDFLNSSTIHKNSGQMSLDKIMFIYHYGSRKAKKVAVDEKLKI | not soluble
MGSDKIHHHHHHNENPDKPTDDVNYNMNEPRLASTLRGGLIIEGNVEQRLKPLQIDFYSQMTVDGGGWGTKNYIQDDEWNNLVWEEYLKQIASINIVIRSLTEKDKDAYANTIAFARIWRVYVHTLAADKFGPMPFPAYEIVEANPPYKSLKDIYDEYFRELDAAINGFNDSAQPIFSDAGIDLIYKNDVSKWKRFANSLRLRLAVRLTEVDQEKCIAEANAAISSPAGLISDKADNAYMPPKADGSWGQDYNYTMFQITWSGPICMSKSVEKLVTNIGGVAWPQGVVNQTSGVAVSSVHPEKVDPRAPKIFQPGIENGDWKGLVYGPKAEEANTGIYQSKQCAELGFIIKDGYPYKSRPYDLFLSEEVHFLKAELYARGFIAGDAKSEYEAGVRASFATWGVTSEVDDYLTSTEKNEAGTSARYDDQQGAGNTALEKIITQKYIAGIPDLAQEGWNDKRRLNLPRLDVAVYRDQAVYNNNDKDILKSANFIKRMRYPTKESLINATEYEKGKSMLGGKGDIVSTPLWWDKNSNYCTSSK | not soluble
MPRQRRQGIVYDVREQGTARLIFDENRTKFDGVLETISGETMLVRGRVTSPTDLASTSATTDGSIVMDIDVVDGEEGSAFHVTGVKVLVDEHYAAIDSTAIKFEALDRLIGMKAAVEIQQHISPEIAYDSKEVFIGKMQIHLLTSHRPSPSSRRESVCAENNDIKILEVSDDFLA | not soluble
MGSDKIHHHHHHMDEIVKVLSQHDRILVVGHIMPDGDCVSSVLSLTLGLEKLGKEVKAAVDYKIPYVFEKFPYIDKIEENPNFDPELLVVVDASSPDRIGKFQDLLDKVPSVVIDHHSTNTNFGNWNWVDPSFAATAQMIFRINKALGVEYDSNLATLNYLGIATDTGFFRHSNADVRVFEDAYKLVKMGADAHFVAKEILENKRFEQFKLFAEVLERLQLLENGKIAYSYIDYDTYLRHNCTDEDSAGFVGELRSIRGVEVAVLFMEFPRGKIHVSMRSKDWFNVNEVAFELGGGGHPRAAGVTFEGKKIEEVIPRVINHLLKKFKEGVESESEKIPEGDVLGG | not soluble
MPFKDQLFLASQYLAPHHLVSRLMGRAADCRAPEIKNRMIARFVRRYNVDMSEALVEDPLAYASFNDFFTRALKPDARPLDDEPGAALCPADGAISQIGAIDNGRIFQAKGHSFGLTDLLGGDAERAAPFAGGQFATIYLSPRDYHRVHMPLAGTLREMVHVPGRLFSVNPLTARSVPELFARNERVACLFDTEHGPMALVLVGAMIVASIETVWAGLVTPHKRQVRSVRYDAAARAPIHLDKGAEMGRFKLGSTVIVLFGPKRLRWLDLPSVRGPVRMGETLALPASTAISFPESELEHHHHHH | not soluble
GPGSMSEPHVPTAAAQQPSAEATANAALTADSTVHTSPQAPPPPAASGASTVSANVAEVKSVTATLSDVADSTEPLLVGKVVSSEIAQARSQPCTSDLNTAQSGAGAPVDANVGEQDRCSPPAKSTSSSSSSHSGEESSDEAADFETKELMFAFGRYVGQVNPQTGLRHGHGCQYYNNGNVYTGEWRDGAPDGFGEKRYRNGDVYRGNWRQGKRSGRGVYLFVQGDTYEGMYADDKPEGQGTYATLKGDRYTGQWKAGQRHGTGRETLANGQVFVGNWRYGKKQGRGKLYLPGSEKCIYGIWNNDRFFRELTANEMGADGAEDVVDELGTQRRPSALSVALPGAKAPPPSASLADRVRMGVTALENRMESLGKALERVITGGDGDESAHVPRAAAMGAASSTAGDVAVSEECTEPPAQGFVVNSHQANDEDGEQG | soluble
